Consider 13 molecules from patent US20220372155A1 (LYVGEN BIOPHARMA, published 2022).

To fix the notation:
B1: TM378 (antibody, human IgG4 S228P, kappa, V domains shown)
VH: EVHLVESGGGLVQPGRSLKLSCAASGFTFTNYGLHWIRQAPTKGLEWVASISPSGGVTYYRDSVKGRFTISRDNGKTTLHLQMDSLRSEDTATYYCALPFLGWGGANWIAHWGQGTLVTVSS
VL: DIQMTQSPASLSASLGETVSIECLASEDISNDLAWYQQKSGKSPQLLIYFVDRLLDGVPSRFSGSGSGTRHSLKISGMQPEDEADYFCQQSYKYPPTFGGGTKLELKR
notes: chimeric LYV378, human IgG4; also called chimeric counterpart TM378
B2: TM559 (antibody, human IgG2, kappa)
heavy: EVQLVESGGGLVQPGGSLRLSCAASGFTFTNYGLHWVRQAPGKGLEWVSSISPSGGVTYYRDSVKGRFTISRDNSKNTLYLQMNSLRAEDTAVYYCAKPFLGWGGANWIAHWGQGTLVTVSSASTKGPSVFPLAPCSRSTSESTAALGCLVKDYFPEPVTVSWNSGALTSGVHTFPAVLQSSGLYSLSSVVTVPSSNFGTQTYTCNVDHKPSNTKVDKTVERKCCVECPPCPAPPVAGPSVFLFPPKPKDTLMISRTPEVTCVVVDVSHEDPEVQFNWYVDGVEVHNAKTKPREEQFNSTFRVVSVLTVVHQDWLNGKEYKCKVSNKGLPAPIEKTISKTKGQPREPQVYTLPPSREEMTKNQVSLTCLVKGFYPSDIAVEWESNGQPENNYKTTPPMLDSDGSFFLYSKLTVDKSRWQQGNVFSCSVMHEALHNHYTQKSLSLSPG
light: DIQMTQSPSSLSASVGDRVTITCLASEDISNDLAWYQQKPGKAPKLLIYFVDRLLDGVPSRFSGSGSGTDFTLTISSLQPEDFATYYCQQSYKYPPTFGQGTKLEIKRTVAAPSVFIFPPSDEQLKSGTASVVCLLNNFYPREAKVQWKVDNALQSGNSQESVTEQDSKDSTYSLSSTLTLSKADYEKHKVYACEVTHQGLSSPVTKSFNRGEC
notes: LYV378_VH-1/IgG2, LYV378_VL-1/kappa
B3: LP3782 (antibody, human IgG4 S228P, kappa)
heavy: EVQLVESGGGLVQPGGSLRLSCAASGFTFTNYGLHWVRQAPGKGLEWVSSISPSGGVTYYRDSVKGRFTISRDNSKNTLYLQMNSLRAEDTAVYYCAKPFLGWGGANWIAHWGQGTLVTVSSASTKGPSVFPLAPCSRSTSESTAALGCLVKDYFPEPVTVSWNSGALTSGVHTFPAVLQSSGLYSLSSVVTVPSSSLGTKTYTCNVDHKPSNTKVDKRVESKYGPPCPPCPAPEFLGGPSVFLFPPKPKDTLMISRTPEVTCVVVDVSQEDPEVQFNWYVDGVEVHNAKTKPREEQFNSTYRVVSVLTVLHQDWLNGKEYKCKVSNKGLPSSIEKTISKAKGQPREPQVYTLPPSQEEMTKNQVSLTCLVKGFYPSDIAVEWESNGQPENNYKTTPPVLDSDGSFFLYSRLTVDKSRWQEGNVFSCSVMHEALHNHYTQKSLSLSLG
light: B2 light
notes: LYV378_VH-1/IgG4, LYV378_VL-1/kappa; also called TM3782
B4: LP3783 (antibody, human IgG1, kappa)
heavy: EVQLVESGGGLVQPGGSLRLSCAASGFTFTNYGLHWVRQAPGKGLEWVSSISPSGGVTYYRDSVKGRFTISRDNSKNTLYLQMNSLRAEDTAVYYCAKPFLGWGGANWIAHWGQGTLVTVSSASTKGPSVFPLAPSSKSTSGGTAALGCLVKDYFPEPVTVSWNSGALTSGVHTFPAVLQSSGLYSLSSVVTVPSSSLGTQTYICNVNHKPSNTKVDKKVEPKSCDKTHTCPPCPAPELLGPSVFLFPPKPKDTLMISRTPEVTCVVVDVEHEDPEVKFNWYVDGVEVHNAKTKPREEQYNSTYRVVSVLTVLHQDWLNGKEYKCKVSNKALPAPIEKTISKAKGQPREPQVYTLPPSREEMTKNQVSLTCLVKGFYPSDIAVEWESNGQPENNYKTTPPVLDSDGSFFLYSKLTVDKSRWQQGNVFSCSVMHEALHNHYTQKSLSLSPG
light: B2 light
notes: LYV378_VH-1/IgG1mut, LYV378_VL-1/kappa; also called TM3783; Ly3783
B5: LP3781 (antibody, human IgG1, kappa)
heavy: not shown
light: B2 light
notes: LYV378_VH-1/IgG1, LYV378_VL-1/kappa; also called TM3781
B6: TM553 (antibody, human IgG2, kappa)
heavy: QVQLVESGGGLVQPGGSLKLSCATSGFNFNDSFMNWVRQASGKGLEWVGQIRNKNYNYATYYTESLEGRVTISRDDSKNTAYLQMNSLKTEDTAVYYCTSYYYDGFADYFDYWGQGTTVTVSSASTKGPSVFPLAPCSRSTSESTAALGCLVKDYFPEPVTVSWNSGALTSGVHTFPAVLQSSGLYSLSSVVTVPSSNFGTQTYTCNVDHKPSNTKVDKTVERKCCVECPPCPAPPVAGPSVFLFPPKPKDTLMISRTPEVTCVVVDVSHEDPEVQFNWYVDGVEVHNAKTKPREEQFNSTFRVVSVLTVVHQDWLNGKEYKCKVSNKGLPAPIEKTISKTKGQPREPQVYTLPPSREEMTKNQVSLTCLVKGFYPSDIAVEWESNGQPENNYKTTPPMLDSDGSFFLYSKLTVDKSRWQQGNVFSCSVMHEALHNHYTQKSLSLSPG
light: DIQMTQSPSSLSASVGDRVTITCKASQNIYIYLNWYQQKPGKAPKLLIYNTNNLQTGVPSRFSGSGSGTDFTLTISSLQPEDFATYYCLQHSSRRTFGGGTKVEIKRTVAAPSVFIFPPSDEQLKSGTASVVCLLNNFYPREAKVQWKVDNALQSGNSQESVTEQDSKDSTYSLSSTLTLSKADYEKHKVYACEVTHQGLSSPVTKSFNRGEC
notes: VH-2/IgG2, VL-1/kappa
B7: LP3773 (antibody, human IgG1, kappa)
heavy: QVQLVESGGGLVQPGGSLKLSCATSGFNFNDSFMNWVRQASGKGLEWVGQIRNKNYNYATYYTESLEGRVTISRDDSKNTAYLQMNSLKTEDTAVYYCTSYYYDGFADYFDYWGQGTTVTVSSASTKGPSVFPLAPSSKSTSGGTAALGCLVKDYFPEPVTVSWNSGALTSGVHTFPAVLQSSGLYSLSSVVTVPSSSLGTQTYICNVNHKPSNTKVDKKVEPKSCDKTHTCPPCPAPELLGPSVFLFPPKPKDTLMISRTPEVTCVVVDVEHEDPEVKFNWYVDGVEVHNAKTKPREEQYNSTYRVVSVLTVLHQDWLNGKEYKCKVSNKALPAPIEKTISKAKGQPREPQVYTLPPSREEMTKNQVSLTCLVKGFYPSDIAVEWESNGQPENNYKTTPPVLDSDGSFFLYSKLTVDKSRWQQGNVFSCSVMHEALHNHYTQKSLSLSPG
light: B6 light
notes: VH-2/IgG1mut, VL-1/kappa
B8: TM738 (antibody, human IgG1, kappa, V domains shown)
VH: QVQLVESGGGLVQPGGSLKLSCATSGFNFQDSFMNWVRQASGKGLEWVGQIRNKNYNYATYYTESLEGRVTISRDDSKNTAYLQMNSLKTEDTAVYYCTSYYYDGFADYFDYWGQGTTVTVSS
VL: DIQMTQSPSSLSASVGDRVTITCKASQNIYIYLNWYQQKPGKAPKLLIYNTNNLQTGVPSRFSGSGSGTDFTLTISSLQPEDFATYYCLQHSSRRTFGGGTKVEIKR
notes: VH-2Q/IgG1mut, VL-1/kappa
B9: TM740 (antibody, human IgG1, kappa)
heavy: B7 heavy with S32Y
light: B6 light
notes: VH-2Y/IgG1mut, VL-1/kappa
B10: Ly181 (antibody, human IgG2, kappa)
heavy: B6 heavy with S32Y
light: B6 light
notes: VH-2Y/IgG2, VL-1/kappa
B11: TM739 (antibody, human IgG1, kappa, V domains shown)
VH: B8 VH with Q30N, S32A
VL: B8 VL
notes: VH-2A/IgG1mut, VL-1/kappa
B12: TM550 (antibody, human IgG2, kappa, V domains shown)
VH: B8 VH with Q1E, T24A, Q30N, V70F, S100R
VL: B8 VL
notes: CDR grafted humanized LYV377
B13: Ly401 (bispecific antibody, human IgG1, kappa)
heavy: EVQLVESGGGVVQPGRSLRLSCSASGFDFTTYWMSWVRQAPGKGLEWIGEIHPDSSTINYAPSLKDRFTISRDNAKNTLFLQMDSLRPEDTGVYFCASLYFGFPWFAYWGQGTPVTVSSASTKGPSVFPLAPSSKSTSGGTAALGCLVKDYFPEPVTVSWNSGALTSGVHTFPAVLQSSGLYSLSSVVTVPSSSLGTQTYICNVNHKPSNTKVDKKVEPKSCDKTHTCPPCPAPELLGPSVFLFPPKPKDTLMISRTPEVTCVVVDVSHEDPEVKFNWYVDGVEVHNAKTKPREEQYNSTYRVVSVLTVLHQDWLNGKEYKCKVSNKALPAPIEKTISKAKGQPREPQVYTLPPSREEMTKNQVSLTCLVKGFYPSDIAVEWESNGQPENNYKTTPPVLDSDGSFFLYSKLTVDKSRWQQGNVFSCSVMHEALHNHYTQKSLSLSPGGGGGSGGGGSGGGGSGGGGSDIQMTQSPSSLSASVGDRVTITCKASQNIYIYLNWYQQKPGKAPKLLIYNTNNLQTGVPSRFSGSGSGTDFTLTISSLQPEDFATYYCLQHSSRRTFGGGTKVEIKGGGGSGGGGSGGGGSGGGGSQVQLVESGGGLVQPGGSLKLSCATSGFNFNDYFMNWVRQASGKGLEWVGQIRNKNYNYATYYTESLEGRVTISRDDSKNTAYLQMNSLKTEDTAVYYCTSYYYDGFADYFDYWGQGTTVTVSS
light: DIQLTQSPSSLSASVGDRVTITCKASQDVGTSVAWYQQKPGKAPKLLIYWTSTRHTGVPSRFSGSGSGTDFTFTISSLQPEDIATYYCQQYSLYRSFGQGTKVEIKRTVAAPSVFIFPPSDEQLKSGTASVVCLLNNFYPREAKVQWKVDNALQSGNSQESVTEQDSKDSTYSLSSTLTLSKADYEKHKVYACEVTHQGLSSPVTKSFNRGEC
notes: Ly311 HC (IgG1 mutated Fc)-TM740 scFv VL-VH + Ly311 LC

Numbering of substitutions follows the chain as printed.

This experiment deals with T1, human CD40 expressed on CHO cells (human, UniProt P25942 21-277).
T1 construct: whole, on cells; also used for the reporter cells over-expressing human CD40; also called cellular CD40; CHO-CD40 cells
T1 sequence (P25942 21-277): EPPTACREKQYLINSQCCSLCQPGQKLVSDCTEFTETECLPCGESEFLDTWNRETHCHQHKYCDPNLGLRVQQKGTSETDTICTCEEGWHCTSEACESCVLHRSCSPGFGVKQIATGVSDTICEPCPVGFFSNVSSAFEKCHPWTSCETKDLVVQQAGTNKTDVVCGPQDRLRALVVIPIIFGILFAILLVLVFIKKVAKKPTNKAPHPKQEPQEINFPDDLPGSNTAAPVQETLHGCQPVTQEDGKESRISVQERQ
As to the kind of experiment: FACS, CHO cells. In general terms: A flow cytometer gives signals particle by particle.
B1: the binding result is “binds”. In the case of B2, the binding result was “binds”.

As for B3, the binding result is “binds”.

Consider B4, for which the binding result is listed as “binds”.

As to B5, the binding result is “binds”. As for B6, the binding result is on record as “binds”. For B7, the binding result was “binds”.

As to B8, the binding result is reported as “binds”. Turning to B9, the binding result was “binds”. As to B10, the binding result is “binds”.

Take B11: the binding result is listed as “binds”. The entry for B12 is “binds”; for B13 it is “binds”.
